Data taken from publication PMC3282170 (Febs Letters, 2012).

T1: triply phosphorylated analog (S19D/S45D/S59D) of αB-crystallin (UniProt P02511 1-175, S19D | S45D | S59D)
T1 sequence (looked up): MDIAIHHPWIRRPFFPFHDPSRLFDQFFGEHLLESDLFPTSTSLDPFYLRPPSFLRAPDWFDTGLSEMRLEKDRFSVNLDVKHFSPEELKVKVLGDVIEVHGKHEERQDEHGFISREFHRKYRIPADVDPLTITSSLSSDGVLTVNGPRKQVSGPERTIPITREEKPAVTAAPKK

B1: Human γD-crystallin I4F/V76D, bimane-labeled at cysteine 111 (natural protein)
chain: GKFTLYEDRGFQGRHYECSSDHPNLQPYLSRCNSARVDSGCWMLYEQPNYSGLQYFLRRGDYADHQQWMGLSDSDRSCRLIPHSGSHRIRLYEREDYRGQMIEFTEDCSCLQDRFRFNEIHSLNVLEGSWVLYELSNYRGRQYLLMPGDYRRYQDWGATNARVGSLRRVIDFS
modifications: bimane label at cysteine C111

Columns and labels:
[1] = target: Human γD-crystallin I4F/V76D, bimane-labeled at cysteine 111 (human) (UniProt P07320); experiment: fluorescence polarisation
[2] = target: T1, triply phosphorylated analog …; experiment: fluorescence polarisation

| Molecule | Kd [1] | Kd [2] |
| --- | --- | --- |
| αB-crystallin (from UniProt P02511 1-175) (natural protein) | > 300 µM | – |
| B1 | – | 27 ± 6 µM |
